Test results taken from patent publication US20240058465A1 (SUTRO BIOPHARMA, published 2024).
Positions count from the first letter of the chain named.

B1: SRP2196-A09 (antibody, V domains shown)
VH: EVQLVESGGGLVQPGGSLRLSCAASGFNITGYYIHWVRQAPGKGLEWVGQISPNSGATHYADSVKGRFTISADTSKNTAYLQMNSLRAEDTAVYYCARDSRRYIRSWDYWGQGTLVTVSS
VL: QAVVTQESALTTSPGETVTLTCRSSTGAVTTSNYANWVQEKPDHLFTGLIGGTNKRAPGVPARFSGSLIGDKAALTITGAQTEDEAIYFCALWYSNLWVFGGGTKLTVL
notes: His/FLAG-tagged IgG1
B2: SRP1944-A07 w SP34 LC3 (antibody, V domains shown)
VH: B1 VH with Q50Y, A57S, H59Y, I104V, S106P, W107F
VL: QTVVTQEPSLTVSPGGTVTLTCGSSTGAVTSGYYPNWFQQKPGQAPRGLIGGTKFLAPGTPARFSGSLLGGKAALTLSGVQPEDEAEYYCALWYSNRWVFGGGTQLTVTG
notes: Parent of SRP2196; IgG
B3: SRP2188-A06 (antibody, IgG1, V domains shown)
VH: EVQLVESGGGLVQPGGSLRLSCAASGFNIKSYDIHWVRQAPGKGLEWVGWINPDDGDTYHADSVKGRFTISADTSKNTAYLQMNSLRAEDTAVYYCARDYGVFDYWGQGTLVTVSS
VL: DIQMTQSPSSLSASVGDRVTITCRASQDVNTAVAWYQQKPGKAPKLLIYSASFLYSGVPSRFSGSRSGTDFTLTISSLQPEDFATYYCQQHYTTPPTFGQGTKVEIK
notes: IgG1 with trastuzumab LC; HIS- and FLAG-tagged; cell-free expressed
B4: SRP2188-D08 (antibody, IgG1, V domains shown)
VH: B3 VH with K30R, S31D, G49V, W50G, N52D, D57A, Y59D, H60E
VL: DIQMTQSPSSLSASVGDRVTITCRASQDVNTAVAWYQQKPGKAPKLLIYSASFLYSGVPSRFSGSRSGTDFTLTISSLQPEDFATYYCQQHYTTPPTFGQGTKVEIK
notes: as for B3
B5: SRP2188-E09 (antibody, IgG1, V domains shown)
VH: B3 VH with K30S, S31D, Y32F, G49A, W50E, N52D, D54Q, D57W, Y59V
VL: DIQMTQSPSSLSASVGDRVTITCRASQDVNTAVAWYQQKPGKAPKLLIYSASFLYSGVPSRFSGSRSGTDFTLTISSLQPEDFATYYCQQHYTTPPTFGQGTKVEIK
notes: as for B3
B6: SRP2188-C06 (antibody, IgG1, V domains shown)
VH: B3 VH with K30N, H60L
VL: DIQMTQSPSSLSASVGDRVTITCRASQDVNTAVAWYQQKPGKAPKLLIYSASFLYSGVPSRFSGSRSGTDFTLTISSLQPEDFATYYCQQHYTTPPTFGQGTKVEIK
notes: as for B3
B7: SRP2188-C08 (antibody, IgG1, V domains shown)
VH: B3 VH with Y32H
VL: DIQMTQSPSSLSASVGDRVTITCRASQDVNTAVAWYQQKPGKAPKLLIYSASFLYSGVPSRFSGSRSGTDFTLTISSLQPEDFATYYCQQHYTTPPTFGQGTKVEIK
notes: as for B3
B8: SRP2188-A10 (antibody, IgG1, V domains shown)
VH: B3 VH with K30N, D54E, Y59S
VL: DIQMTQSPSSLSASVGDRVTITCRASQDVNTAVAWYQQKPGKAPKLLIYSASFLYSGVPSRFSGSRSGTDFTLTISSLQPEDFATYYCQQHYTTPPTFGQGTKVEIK
notes: as for B3
B9: SRP2188-F07 (antibody, IgG1, V domains shown)
VH: B3 VH with K30S, S31D, W50G, N52D, D54N, D57S, Y59D, T78M
VL: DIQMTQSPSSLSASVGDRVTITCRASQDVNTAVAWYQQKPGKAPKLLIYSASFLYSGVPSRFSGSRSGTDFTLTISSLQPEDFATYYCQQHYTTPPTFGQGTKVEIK
notes: as for B3
B10: SRP2188-B10 (antibody, IgG1, V domains shown)
VH: B3 VH with K30N, D54H
VL: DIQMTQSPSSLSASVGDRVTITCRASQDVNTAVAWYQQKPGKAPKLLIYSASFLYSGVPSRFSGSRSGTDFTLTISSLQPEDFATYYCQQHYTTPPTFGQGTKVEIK
notes: as for B3
B11: SRP2188-F02 (antibody, IgG1, V domains shown)
VH: B3 VH with K30S, S31D, G49A, N52D, D54S, D57S, Y59E, N84S
VL: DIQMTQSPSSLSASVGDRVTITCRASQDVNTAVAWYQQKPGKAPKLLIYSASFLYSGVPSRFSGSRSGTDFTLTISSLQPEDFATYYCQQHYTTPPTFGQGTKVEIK
notes: as for B3
B12: SRP2188-D05 (antibody, IgG1, V domains shown)
VH: B3 VH with K30S, S31E, W50G, N52D, D54H, D57W, Y59D, F103Y
VL: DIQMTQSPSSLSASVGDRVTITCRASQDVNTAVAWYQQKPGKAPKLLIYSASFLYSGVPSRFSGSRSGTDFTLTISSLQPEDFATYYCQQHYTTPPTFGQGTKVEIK
notes: as for B3
B13: SRP2188-E07 (antibody, IgG1, V domains shown)
VH: B3 VH with K30G, S31D, D33G, W50G, N52D, D54E, D57F, Y59V, F103Y
VL: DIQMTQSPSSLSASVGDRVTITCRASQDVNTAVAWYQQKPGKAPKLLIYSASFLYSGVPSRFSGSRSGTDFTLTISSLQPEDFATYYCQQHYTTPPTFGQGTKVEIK
notes: as for B3
B14: SRP2188-F01 (antibody, IgG1, V domains shown)
VH: B3 VH with K30R, S31Y, W50L, N52D, D57W, Y59V, H60S
VL: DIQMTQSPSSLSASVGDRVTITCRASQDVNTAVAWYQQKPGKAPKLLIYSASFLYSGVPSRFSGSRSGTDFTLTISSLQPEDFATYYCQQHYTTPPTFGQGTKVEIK
notes: as for B3
B15: SRP2188-C01 (antibody, IgG1, V domains shown)
VH: B3 VH with K30I, G49S, W50L, N52D, D54H, D57S, Y59D, H60S
VL: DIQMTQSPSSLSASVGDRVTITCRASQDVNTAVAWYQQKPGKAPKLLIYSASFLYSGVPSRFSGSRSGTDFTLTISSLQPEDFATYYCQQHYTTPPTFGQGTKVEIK
notes: as for B3
B16: SRP2188-E08 (antibody, IgG1, V domains shown)
VH: B3 VH with K30I, S31D, Y32F, W50G, N52D, D54Q, D57S, Y59D, H60L, F68L
VL: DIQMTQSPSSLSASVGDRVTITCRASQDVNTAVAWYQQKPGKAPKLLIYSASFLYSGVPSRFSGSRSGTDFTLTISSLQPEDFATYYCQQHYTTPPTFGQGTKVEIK
notes: as for B3
B17: SRP2188-B02 (antibody, IgG1, V domains shown)
VH: B3 VH with K30S, H60L, N77S
VL: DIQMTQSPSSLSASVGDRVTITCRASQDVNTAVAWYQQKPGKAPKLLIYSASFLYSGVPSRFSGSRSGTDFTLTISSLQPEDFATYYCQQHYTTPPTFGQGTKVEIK
notes: as for B3
B18: SRP2188-B06 (antibody, IgG1, V domains shown)
VH: B3 VH with K30H, K43E
VL: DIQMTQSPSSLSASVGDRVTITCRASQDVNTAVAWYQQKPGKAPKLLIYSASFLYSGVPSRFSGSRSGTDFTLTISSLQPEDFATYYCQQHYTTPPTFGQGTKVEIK
notes: as for B3
B19: SRP2188-C04 (antibody, IgG1, V domains shown)
VH: B3 VH with K30N, D54E, K65R, F103Y
VL: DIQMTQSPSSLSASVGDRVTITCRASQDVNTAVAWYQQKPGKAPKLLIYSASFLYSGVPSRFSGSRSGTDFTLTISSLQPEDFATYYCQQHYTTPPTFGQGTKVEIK
notes: as for B3
B20: SRP2188-D11 (antibody, IgG1, V domains shown)
VH: B3 VH with P14T, K30R, S31D, W50L, N52D, D57S, Y59D, H60E
VL: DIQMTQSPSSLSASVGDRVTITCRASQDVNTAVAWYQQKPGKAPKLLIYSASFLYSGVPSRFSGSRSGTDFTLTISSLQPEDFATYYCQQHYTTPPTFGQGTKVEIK
notes: as for B3
B21: SRP2188-E06 (antibody, IgG1, V domains shown)
VH: B3 VH with K30G, S31D, W50G, N52D, D54E, D57A, Y59D, H60I, N84D
VL: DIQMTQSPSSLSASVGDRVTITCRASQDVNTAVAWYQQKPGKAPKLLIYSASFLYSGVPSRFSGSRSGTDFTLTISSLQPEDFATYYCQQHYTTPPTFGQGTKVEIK
notes: as for B3
B22: SRP2188-C05 (antibody, IgG1, V domains shown)
VH: B3 VH with K30N, Y32F, W50G, N52D, D54R, D57S, Y59D, H60S
VL: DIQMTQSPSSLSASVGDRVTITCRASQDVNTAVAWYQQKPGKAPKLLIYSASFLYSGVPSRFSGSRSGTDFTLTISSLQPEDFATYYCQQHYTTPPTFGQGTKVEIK
notes: as for B3
B23: SRP2188-B09 (antibody, IgG1, V domains shown)
VH: B3 VH with K30N, W50V, N52D, D54K, D57W, Y59D, A88T
VL: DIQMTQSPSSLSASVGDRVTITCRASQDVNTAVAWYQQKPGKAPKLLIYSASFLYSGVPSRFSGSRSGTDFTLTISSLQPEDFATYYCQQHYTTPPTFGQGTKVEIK
notes: as for B3
B24: SRP2188-E05 (antibody, IgG1, V domains shown)
VH: B3 VH with K30S, S31D, G49A, W50G, N52E, D54W, D57S, Y59D
VL: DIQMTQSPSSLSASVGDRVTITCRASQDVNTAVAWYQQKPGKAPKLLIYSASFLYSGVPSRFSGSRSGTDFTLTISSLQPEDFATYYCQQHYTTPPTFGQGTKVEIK
notes: as for B3
B25: SRP2188-B11 (antibody, IgG1, V domains shown)
VH: B3 VH with K30N, S31R, Y59F, H60L, N77S
VL: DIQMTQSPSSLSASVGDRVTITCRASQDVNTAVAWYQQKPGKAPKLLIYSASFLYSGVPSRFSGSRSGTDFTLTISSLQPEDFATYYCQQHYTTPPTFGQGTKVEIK
notes: as for B3
B26: SRP2188-A11 (antibody, IgG1, V domains shown)
VH: B3 VH with K30S, S31D, G49S, W50L, N52D, D54K, D57A, Y59D, H60S, E89G
VL: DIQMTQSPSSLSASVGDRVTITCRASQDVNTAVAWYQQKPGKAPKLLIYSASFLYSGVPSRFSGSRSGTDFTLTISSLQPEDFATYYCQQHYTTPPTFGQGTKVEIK
notes: as for B3
B27: SRP2188-E11 (antibody, IgG1, V domains shown)
VH: B3 VH with K30S, S31H, G49S, W50G, N52D, D54G, D57A, Y59D
VL: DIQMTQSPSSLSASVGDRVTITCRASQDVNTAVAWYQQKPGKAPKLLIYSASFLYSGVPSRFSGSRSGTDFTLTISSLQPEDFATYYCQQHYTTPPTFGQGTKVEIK
notes: as for B3
B28: SRP2188-C11 (antibody, IgG1, V domains shown)
VH: B3 VH with H60L
VL: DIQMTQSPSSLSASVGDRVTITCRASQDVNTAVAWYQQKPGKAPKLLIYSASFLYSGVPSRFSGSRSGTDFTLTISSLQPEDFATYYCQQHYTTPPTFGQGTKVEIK
notes: as for B3
B29: SRP2188-C10 (antibody, IgG1, V domains shown)
VH: B3 VH with K30N
VL: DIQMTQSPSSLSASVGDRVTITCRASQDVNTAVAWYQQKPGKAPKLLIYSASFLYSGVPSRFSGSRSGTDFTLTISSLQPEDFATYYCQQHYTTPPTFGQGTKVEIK
notes: as for B3

What follows are binders tested against T1, human ROR1 (hROR1) (human, UniProt Q01973 30-937) (assay: flow cytometry, HCT116-hROR1 cells).
T1 construct: On HCT116-hROR1 transfectants, Mino cells or Ntera-2 cells, as the assay of each row says; also called receptor tyrosine kinase like orphan receptor 1

| Bmax (MFI) | Kd [nM] | Binder |
| --- | --- | --- |
| 14600 | 0.2 | B1 |
| 13200 | 0.1 | B2 |

Each binder was assayed against T2, human ROR1 (hROR1) expressed on cells (human, UniProt Q01973 30-937) (assay: flow cytometry, HCT116-hROR1 cells).
T2 construct: Mino cells are the target positive cells of the killing assay; also called receptor tyrosine kinase like orphan receptor 1; HCT 116-hROR1

| Bmax (MFI) | Kd [nM] | Binder |
| --- | --- | --- |
| 8950 | 0.02 | B3 |
| 9600 | 0.05 | B4 |
| 9780 | 0.02 | B5 |
| 9580 | 0.03 | B6 |
| 8570 | 0.03 | B7 |
| 9150 | 0.03 | B8 |
| 9870 | 0.03 | B9 |
| 9000 | 0.04 | B10 |
| 9850 | 0.03 | B11 |
| 9840 | 0.04 | B12 |
| 7600 | 0.02 | B13 |
| 8660 | 0.02 | B14 |
| 10100 | 0.38 | B15 |
| 9330 | 0.03 | B16 |
| 9760 | 0.03 | B17 |
| 9130 | 0.06 | B18 |
| 9500 | 0.03 | B19 |
| 9600 | 0.02 | B20 |
| 9970 | 0.04 | B21 |
| 9510 | 0.06 | B22 |
| 9420 | 0.05 | B23 |
| 10600 | 0.05 | B24 |
| 8730 | 0.04 | B25 |
| 8340 | 0.06 | B26 |
| 9250 | 0.03 | B27 |
| 9210 | 0.04 | B28 |
| 9310 | 0.05 | B29 |

The binders below were run against T3, human ROR1 Frizzled domain (hROR1-Fz) (human, UniProt Q01973 165-305) (assay: SPR Biacore, IgG on anti-Fc, ROR1-Fz analyte).
T3 construct: Acro Biosystems, made in HEK293
In short: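 Test antibodies captured on an anti-Fc surface (CM5 chip), then analyte bound for 180 s with 600 s dissociation at 25° C in HBS-EP+ buffer at 50 μL/min. Human ROR1 ECD, Frizzled or Kringle domain used as analyte; regeneration with 10 mM glycine pH 2.0.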

| Kd [nM] | koff [s⁻¹] | kon [M⁻¹ s⁻¹] | Binder |
| --- | --- | --- | --- |
| 3.79 | 0.000568 | 150000 | B1 |
| 14.3 | 0.0085 | 597000 | B2 |

Each binder was assayed against T4, human ROR1-ECD (human, UniProt Q01973 30-406) (assay: SPR (Biacore), antibody captured by anti-Fc, human ROR1-ECD analyte).
T4 construct: Bought protein; also called hROR1; ROR1-extracellular domain
Description: Anti-Fc polyclonal antibodies were immobilized onto a CMS chip (GE Life Sciences) using amine coupling chemistry (from Amine Coupling Kit, GE Life Sciences). The immobilization steps were carried out at a flow rate of 25 μL/min in 1×HBS-EP+buffer (GE Life Sciences; 10× Stock diluted before use). The sensor surfaces were activated for 7 min with a mixture of NHS (0.05 M) and EDC (0.2 M). The Anti-Fc antibodies were injected over all 4 flow cells at a concentration of 25 ug/ml in 10 mM sodium acetate, pH 4.5, for 7 min. Ethanolamine (1 M, pH 8.5) was injected for 7 min to block any remaining activated groups.
Off-rate and kinetic binding experiments were performed at 25° C. using 1×HBS-EP+buffer. Test and control antibodies were injected over the anti-Fc surface at concentrations of 5-10 μg/mL for 12 seconds at a flow rate of 10 μL/min on flow cells 2, 3 and 4, followed by a buffer wash for 30 seconds at the same flow rate. […] After capturing ligand (antibody) on the anti-Fc surface, the analyte (hROR1, Fz or Kr domains, Acro Biosystems, Delaware) was bound for 180 seconds, followed by a 600 second dissociation phase at a flow rate of 50 μL/min. Between each ligand capture and analyte binding cycle, regeneration was carried out using 2 injections of 10 mM Glycine pH 2.0 for 30 seconds at 30 μL/min, followed by a 30 second buffer wash step.

| Kd [nM] | koff [s⁻¹] | kon [M⁻¹ s⁻¹] | Binder |
| --- | --- | --- | --- |
| 0.381 | 0.000268 | 703000 | B4 |
| 0.426 | 0.000222 | 522000 | B8 |
| 0.462 | 0.000539 | 1.17e+06 | B10 |
| 0.48 | 0.000359 | 747000 | B12 |
| 0.546 | 0.000316 | 578000 | B14 |
| 0.504 | 0.000467 | 927000 | B18 |
| 0.139 | 0.000101 | 723000 | B19 |
| 0.741 | 0.00055 | 743000 | B20 |
| 0.438 | 0.000346 | 790000 | B21 |
| 0.427 | 0.000453 | 1.06e+06 | B22 |
| 0.657 | 0.000579 | 882000 | B23 |
| 0.369 | 0.00031 | 840000 | B24 |
| 0.354 | 0.000379 | 1.07e+06 | B26 |
| 0.873 | 0.000617 | 707000 | B28 |
